Square brackets hold non-standard residues; d marks the D form. Ends that are not written are not given here. pS = N[C@@H](COP(=O)(O)O)C(=O)O
Target: B56γ 31–380 (PP2A regulatory subunit B56) (UniProt Q13362 31-380)
Assay: ITC

Binder | Kd | also measured
KL[pS]PIIEDE [BubR1 peptide 668-KLpSPIIEDE-676] |  | fold increase of affinity as salt is reduced from 300 mM to 150 mM: ~3.6 fold
KLEPIIEDE [BubR1 peptide 668-KLEPIIEDE-676] |  | fold weaker affinity than KLpSPIIEDE: 2.4 fold
KL[pS]PIIED [BubR1 peptide 668-KLpSPIIED-675] |  | fold weaker binding than the peptide with residue 676: ~1.7 fold

The next lines start with results.

Kd | Binder | also measured
600 nM | TLSIKKL[pS]PIIEDDREADH [pS-BubR1 peptide, 663-TLSIKKL-pS-PIIEDDREADH-681 (mono-phosphorylated BubR1)] | 
2000 nM | KL[pS]PIIED[pS] [pSpS-BubR1 peptide, 668-KL-pS-PIIED-pS-676 (dually-phosphorylated BubR1)] | 
100 nM | RDIASKKPLL[pS]PIPELPEVPE [pS-RepoMan peptide, 581-RDIASKKPLL-pS-PIPELPEVPE-601 (mono-phosphorylated RepoMan)] | 

Reference: paper PMC5180209 (Structure (London, England : 1993), 2016)
